Assay results taken from the supplement of paper PMC9170038.

System: MS2 coat protein
Experiment: apparent KD of MS2 coat protein; designed switch direction (-1 OFF switch, 1 ON switch): -1; higher = weaker reporter binding
Summary of the method: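 On Illumina chips, designed RNA switches with common flanks were made by stalled E. coli RNA polymerase. Titrations with SNAP-549-labelled MS2 coat protein, doubling from 0.7 or 1.5 nM to 3 µM, were done with no input, with 200 uM small-molecule ligand, or with an oligonucleotide input. Apparent KD is the median per design over clusters, from curve fits of normalised cluster fluorescence.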

[1] = input ligand: microRNA oligo, concentration not stated
[2] = Eterna round: R95, input ligand: FMN 200 uM
[3] = Eterna round: R95, input ligand: microRNA oligo, concentration not stated
[4] = Eterna round: R95, input ligand: none

Sequence	apparent KD of MS2 coat protein (input ligand: FMN 200 uM)	apparent KD of MS2 coat protein [1]	apparent KD of MS2 coat protein (input ligand: none)	apparent KD of MS2 coat protein [2]	apparent KD of MS2 coat protein [3]	apparent KD of MS2 coat protein [4]
UUACGGCGGAUCGUGGCUUUUUGCUCGUCUUGUGCUACAACAUGAGGAUCACCCAUGUAGAGGUGAUCCGUUGUAUU [Grok-var2-19 mod JAL] (Eterna round: R96, puzzle: Sensor v3, turn-off variant 2)	342 nM	13.4 nM	740 nM			
UUACGGCGGAUCGUGGCUUUUUGCUCGUCUUGUGCUACAACAUGAGGAUCACCCAUGUAGAGGUGAUCCGUUGUAUU [Grok-var2-19 mod JAL] (puzzle: Sensor v3, turn-off variant 2)				92.4 nM	22.3 nM	120 nM
UUAGAUAGGUCAGGAUAUCGAUGAUUGAAUUGUAUGAUUUACAUGAGGAUCACCCAUGUUUUGUACGAGAAGGGACGUUAGUUU [JR_ExcNG2_Sub019] (Eterna round: R96, puzzle: Exclusion NG 2)	25.3 nM	26.1 nM	33.5 nM			
UUAGCUUCAGGAUAUACAGUGGGCUGGGAUCUAAAGAUCAAACAUGAGGAUCACCCAUGUAGAAGGGAACGGAA [Eternabot (L2) Solution 32] (Eterna round: R97, puzzle: Exclusion 2)	380 nM		145 nM			
UUAGUUGGAGGAUAUACGCCGUUUGACAUGAGGAUCACCCAUGUAGAGGCUUAUGUCAAUGUAGAAGGCCGUUUGG [Eternabot (L2) Solution 12] (Eterna round: R97, puzzle: Exclusion 5)	26.3 nM		18.7 nM			
UUAUAAAGUGUGAGGAUAUGCUGGUCGAUAGAUCAGCAGAAGGCACAUGAGGAUCACCCAUGUAAUAUAUUUUU [Mat - Exclusion 4 - JL Mod - D44] (puzzle: Brourd's mod of Exclusion 4)					45.1 nM	
UUAUGGCGAGAGGAUAUUCUGCUACGGCCCGGAGAAGAAGGUUUGACAUGAGGAUCACCCAUGUGGUCGCUCCU [Eternabot (L2) Solution 29] (Eterna round: R97, puzzle: Exclusion 6)	138 nM		238 nM			
UUAUGUGCGAGAGGAUAUCGUGUACAAAGUACACGAGAAGGCUUCACAUGAGGAUCACCCAUGUACCGAGGUGAAACACCUUGA [Omei Exc(NG)1 Bv7] (Eterna round: R96, puzzle: Exclusion NG 1)	660 nM	476 nM	887 nM			
UUAUUAAUUAAGACUGCAAGAUCACAUGAGGAUCACCCAUGUCAGGAUAUCAGCUCGUGUAGAGCUGAGAAGGGACAAGCAGUC [ExNG3/15-A3] (Eterna round: R96, puzzle: Exclusion NG 3)	314 nM	97.5 nM	123 nM			
UUAUUACAAGCAAGAUCCUACAUGAGGAUCACCCAUGUGCUCGUCUUAUAAGGUACAGUGACGAAAGUCACAGUACC [Sensor 3, v1 - 00] (puzzle: Sensor v3, turn-off variant 1)				204 nM	138 nM	221 nM
UUAUUAUAUGAAGGAUAUACUUAACAUGAGGAUCACCCAUGUGGUGUUGUGAGUGAGUGAGUUUAGUAGAAGGUCAAUUCUUUU [JMF's solution 93] (Eterna round: R96, puzzle: Exclusion NG 2)		418 nM				
UUAUUAUAUGUAGGAUAUGCAUAUUAUUAUUAUGCAGAAGGACAUGAGGAUCACCCAUGUAUAUUAUUAUUAUAUAUUAUGUAU [Title] (Eterna round: R96, puzzle: Exclusion NG 1)		27.5 nM				
UUAUUCAGAGGAUAUGCGCAUAGAUAAGACUUUUUUUCUUAACAUGAGGAUCACCCAUGUAGAAGGCUGUAAUA [Ex2 #57] (Eterna round: R97, puzzle: Exclusion 2)	19.8 nM		18.4 nM			
UUAUUGGUUGUGAGGAUAUCGGAUAGAUAGAUAUUCGAGAAGGCACAUGAGGAUCACCCAUGUGUGAUUAGAAA [JR_BMEx4_Sub048] (Eterna round: R97, puzzle: Brourd's mod of Exclusion 4)	193 nM		25.9 nM			
UUAUUGUGUGUAGGAUAUGCGUGUUAUUAUUAUGCAGAAGGACAUGAGGAUCACCCAUGUGUAUUGUUAUUAUAUAUUAUAUAU [Title] (Eterna round: R96, puzzle: Exclusion NG 1)	48.2 nM	21.2 nM	27 nM			
UUCAGGAGUCGAGGAUAUUUGCAGACGACAUGAGGAUCACCCAUGUGGUUAGCAUAGUCUUCAGCAGAGAAGGCGACCAACGAG [Eternabot solution 20] (Eterna round: R96, puzzle: Exclusion NG 2)	171 nM	40 nM	40.3 nM			
UUCAUGUGAGGAUAUGUGUACUGUUUUUUGUUUAGAUGUACACAGAAGGCACAUGAGGAUCACCCAUGUAGUAC [Ex4 - 3 - 32] (puzzle: Exclusion 4)					30 nM	

Sequence	apparent KD of MS2 coat protein (input ligand: FMN 200 uM)	apparent KD of MS2 coat protein [1]	apparent KD of MS2 coat protein (input ligand: none)	apparent KD of MS2 coat protein [2]	apparent KD of MS2 coat protein [3]	apparent KD of MS2 coat protein [4]
UUCCUACUUGAGGAUCACCCAAGUCAGGAUAUCCAUAACCGACACUCUUUUCGGAGCGGGAGAAGGGACUUGGC [Arbedi] (Eterna round: R97, puzzle: Exclusion 1)	119 nM		52.9 nM			
UUCCUCAGCUAGGAUAUCAAGGCACCACCCUAAUGAGAAGGAGCAACAUGAGGAUCACCCAUGUGGGUUUCUUA [Aterre] (Eterna round: R97, puzzle: Exclusion 6)	143 nM		54.9 nM			
UUCCUCGUUGUGAGGAUAUCGUCCGUGUUUUGUUACGAGAAGGCACAUGAGGAUCACCCAUGUUACUUGAUGUU [JR_BMOE4_Sub073] (Eterna round: R96, puzzle: Brourd's mod of Exclusion 4)	150 nM	19 nM	23.3 nM			
UUCCUCGUUGUGAGGAUAUCGUCCGUGUUUUGUUACGAGAAGGCACAUGAGGAUCACCCAUGUUACUUGAUGUU [JR_BMOE4_Sub073] (puzzle: Brourd's mod of Exclusion 4)					18.9 nM	
UUCGUGCAGCUUUGCUGUACGAGUACAUGAGGAUCACCCAUGUAGGAUAUGGUACGCUUUGCGUGCUAGAAGGAUAUGUGUAGC [salish99_ExNG3_r04_504] (Eterna round: R96, puzzle: Exclusion NG 3)		25.7 nM				
UUCGUGCAGCUUUGCUGUACGCGUACAUGAGGAUCACCCAUGUAGGAUAUGGUACGCAAAGCGUGCUAGAAGGAUAUGGAGAGG [Mat - Exclusion NG 3 - Mod of JL - D81] (Eterna round: R96, puzzle: Exclusion NG 3)	11.7 nM	8.08 nM	13.1 nM			
UUCUUAUAUGAAGGAUAUACUUAACAUGAGGAUCACCCAUGUGGUGUUGUGAGUGAGUGAGUUUAGUAGAAGGUCAAUUCUUUU [JMF's solution 95] (Eterna round: R96, puzzle: Exclusion NG 2)	818 nM	326 nM	355 nM			
UUCUUGGCAGGAUAUGCUCUUUUAGACAUGAGGAUCACCCAUGUGUUUAUUCUUUUUUUUGCAGAAGGGCCUUAAU [JR_E5_Sub044] (Eterna round: R96, puzzle: Exclusion 5)	176 nM	68.6 nM	98.1 nM			
UUCUUGGCAGGAUAUGCUCUUUUAGACAUGAGGAUCACCCAUGUGUUUAUUCUUUUUUUUGCAGAAGGGCCUUAAU [JR_E5_Sub044] (puzzle: Exclusion 5)					87.9 nM	
UUGAAUUAUAAGGAUAUGGGAGUCGAUAGACACCCAGAAGGUAUAACAUGAGGAUCACCCAUGUGUCCUAUCAA [Mod of Eli 25 - Jieux - Exclusion 6] (Eterna round: R97, puzzle: Exclusion 6)	33.6 nM		18.2 nM			
UUGACUGGCGAGGAUAUCUCGCAAUAGUUAGGGAGAGAAGGUGCUACAUGAGGAUCACCCAUGUCAAACGAACC [Eternabot (L1) Solution 58] (Eterna round: R97, puzzle: Exclusion 6)	17.7 nM		21.9 nM			
UUGAGCAGACGGAGAUCCAACAUGAGGAUCACCCAUGUCUCAAAAGCUUUUUGCUCAUCUUAUCGUACCUUGGUGCU [Mat - Sensor v3 - turn-off var 1 - JL Mod - D15] (puzzle: Sensor v3, turn-off variant 1)				155 nM	9.75 nM	302 nM
UUGAGGUAAGGAUAUAUUAGGAGCGAAGUUACUUGUUUUUUAUAGAAGGUACAUGAGGAUCACCCAUGUGAAUA [JR_Exclu4_Sub062] (puzzle: Exclusion 4)					24.7 nM	
UUGAUGUGAGGAUAUAUUUAGUGUUUUCUUUAUGUUUUAUAACUUGAGGAUCACCCAAGUAGAAGGCGCUACGU [JR_Ex2_Sub066] (Eterna round: R97, puzzle: Exclusion 2)	19 nM		13.9 nM			
UUGCAGUCGUCAGGAUAUAGUAUUACGGCCAUUUUUUUUUUCAUACAUGAGGAUCACCCAUGUCGCUAGAAGGGAUUAUCGAUU [salish99_ExNG2_r04_103] (Eterna round: R96, puzzle: Exclusion NG 2)	71 nM	57.1 nM	67 nM			
UUGUACAUAGGAUAUAGUUGUUUGUACAUGAGGAUCACCCAUGUUAUGUAUGUUUUGCUUCUAGAAGGAUGUUGUU [JR_E5_Sub004] (Eterna round: R96, puzzle: Exclusion 5)	28.5 nM	25.8 nM	34.5 nM			
UUGUACAUAGGAUAUAGUUGUUUGUACAUGAGGAUCACCCAUGUUAUGUAUGUUUUGCUUCUAGAAGGAUGUUGUU [JR_E5_Sub004] (puzzle: Exclusion 5)					28 nM	
